Laboratory results as given in article PMC4269474 (Cell reports, 2014).

Biological target: the molecule itself
Test: negative-stain EM single particle reconstruction

B1: Pyrococcus furiosus Cmr4 (natural protein)
chain: KAYLVGLYTLTPTHPGSGTELGVVDQPIQRERHTGFPVIWGQSLKGVLRSYLKLVEKVDEEKINKIFGPPTEKAHEQAGLISVGDAKILFFPVRSLKGVYAYVTSPLVLNRFKRDLELAGVKNFQTEIPELTDTAIASEEITVDNKVILEEFAILIQKDDKGILESVVKAIEQAFGNEMAEKIKGRIAIIPDDVFRDLVELSTEIVARIRINAETGTVETGGLWYEEYIPSDTLFYSLILVTPRAKDNDMALIKEVLGKINGKYLQIGGNETVGKGFVKVTLKEVTNNGGTHAK
stoichiometry N: 4
